Patent CN102731650A (SICHUAN HUIYU PHARMACEUTICAL CO LTD, dated 2012)

Target: T1, SP62 (biotin-labelled peptide containing the 2F5 epitope sequence) (HIV-1, biotin-labelled (position not given))
T1 construct: The results speak of the 'MPER peptide' or 'peptide'; also called 2F5多肽; gp41 MPER多肽
T1 peptide: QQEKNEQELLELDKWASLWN
Experiment: ELISA

B1: A2 (light-chain shuffled clone, Fab on phage) (Fab, V domains shown)
VH: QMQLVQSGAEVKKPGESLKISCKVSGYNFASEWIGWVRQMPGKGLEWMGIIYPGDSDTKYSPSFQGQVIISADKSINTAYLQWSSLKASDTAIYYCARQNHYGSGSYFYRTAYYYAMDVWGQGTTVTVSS
VL: DIQLTQSPSSLSASLGDKVTITCRASQHIKKYLNWYQQKPGKAPKLLIYGALNLQSGVPSRFSGRGSGTDFTLTISSLQPEDFATYYCQQSYSTPFTFGPGTKVDIKR
binding result: binds
